Reference: KR20220081857A (dated 2022)
Residue numbers refer to the chain shown, from its start. Names and notes keep the numbering of the source.

T1: 인간 OX40L 단백질 (OX40L-his; ACROBiosystems Cat# OXL-H52Q8) (human, UniProt P23510 51-183)
T1 sequence: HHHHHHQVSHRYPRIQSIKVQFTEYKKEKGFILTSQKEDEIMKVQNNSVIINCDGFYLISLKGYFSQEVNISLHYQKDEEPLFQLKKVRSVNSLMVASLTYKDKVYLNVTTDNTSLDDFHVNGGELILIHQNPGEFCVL

B1: 항 OX40L 항체 Hu3F07 (antibody, human IgG4 S228P, kappa, V domains shown)
VH: QVQLVQSGAEVKKPGASVKVSCKASGFTFPDYWMHWVRQAPGQGLEWMGEIDPPNGRTNYNEKFKSRVTMTRDTSISTAYMELSRLRSDDTAVYYCARGIYYVDYWGQGTTVTVSS
VL: DIVMTQSPLSLPVTLGEPASISCRSSQSLVHSNGNTYLHWYLQKPGQSPQLLIYKVSNRFSGVPDRFSGSGSGTDFTLKISRVEAEDVGVYYCSQSTHVPPTFGGGTKLEIKR
B2: 항 OX40L 항체 21G07 (antibody, human IgG4 S228P, kappa, V domains shown)
VH: QVQLQQSGAELVKPGASVKLSCKASGYTFTNYWMQWVKQRPGQGLEWIGEIDPSDGRTNYNEKFKNKATLTVDRSSSTAYIKLSSLTSEDSAVYYCAREVSLRSMDYWGQGTSVTVSS
VL: B1 VL with M4L, T14S, E17D, P18Q, Q50K, V88L, Y92F, P101F, G105S
B3: 항 OX40L 항체 10H07 (antibody, human IgG4 S228P, kappa, V domains shown)
VH: QVYLQQSGAELVKPGASVKLSCKASGYTFTDYWMHWVKQRPGQGLEWIGEIDPGNGRTNYNEKFKNKATLSVDKSSNTAYMQFSSLTSEDSAVFYCASEGAGRGFPYWGQGTLVTVSA
VL: B1 VL with I2V, M4L, S7T, T14S, E17D, P18Q, Q50K, V88L, Y92F, P101W
B4: 이중 특이성 항체 02C09-TNFαi HC (bispecific antibody)
heavy: not shown
light: DIQMTQSPSSLSASLGDRVTITCRASQSIGRWLAWYQQKPGNAPKLLIYKATILESGVPSRFSGSGSGTEFALTISSLQPDDFSAYYCQQYNSYPYTFGQGTKLEIKRTVAAPSVFIFPPSDEQLKSGTASVVCLLNNFYPREAKVQWKVDNALQSGNSQESVTEQDSKDSTYSLSSTLTLSKADYEKHKVYACEVTHQGLSSPVTKSFNRGEC
B5: reference 항-OX40L 항체 O4L (oxelumab VH/VL) (antibody, human IgG4 S228P, kappa, V domains shown)
VH: EVQLLESGGGLVQPGGSLRLSCAASGFTFNSYAMSWVRQAPGKGLEWVSIISGSGGFTYYADSVKGRFTISRDNSRTTLYLQMNSLRAEDTAVYYCAKDRLVAPGTFDYWGQGALVTVSS
VL: DIQMTQSPSSLSASVGDRVTITCRASQGISSWLAWYQQKPEKAPKSLIYAASSLQSGVPSRFSGSGSGTDFTLTISSLQPEDFATYYCQQYNSYPYTFGQGTKLEIKR
B6: 이중 특이성 항체 Hu3F07-TNFαi HC (bispecific antibody)
heavy: not shown
light: DIVMTQSPLSLPVTLGEPASISCRSSQSLVHSNGNTYLHWYLQKPGQSPQLLIYKVSNRFSGVPDRFSGSGSGTDFTLKISRVEAEDVGVYYCSQSTHVPPTFGGGTKLEIKRTVAAPSVFIFPPSDEQLKSGTASVVCLLNNFYPREAKVQWKVDNALQSGNSQESVTEQDSKDSTYSLSSTLTLSKADYEKHKVYACEVTHQGLSSPVTKSFNRGEC
B7: 이중 특이성 항체 I3F07-TNFαi HC (bispecific antibody)
heavy: not shown
light: B6 light with M4L, T14S, E17D, P18Q, Q50K, V88L, Y92F, T107S

Biological target: T1, 인간 OX40L 단백질 (OX40L-his; ACROBiosystems …)
Experiment: cell-based or functional assay

In order of rising “IC50 (nM), OX40L blockade assay” value:
1. B1  0.2 nM
2. B6  0.21 nM
3. B3  0.41 nM
4. B4  0.59 nM
5. B2  0.85 nM
6. B5  1.95 nM

In order of rising “IC50 (μg/mL), OX40L blockade assay” value:
1. B1  0.03 µg/mL
2. B6  0.041 µg/mL
3. B3  0.061 µg/mL
4. B4  0.117 µg/mL
5. B2  0.128 µg/mL
6. B5  0.293 µg/mL

Biological target: T1, 인간 OX40L 단백질 (OX40L-his; ACROBiosystems …)
Experiment: cell-based or functional assay
Remark: another data set of the same source

In the case of B7, the “IC50 (nM), OX40L blockade assay” value is reported as 0.91 nM.

Biological target: 인간 TNFα (ACROBiosystems TNF-H5228) (human, UniProt P01375 77-233)
Experiment: cell-based or functional assay

인간 TNFα (ACROBiosystems TNF-H5228), sequence (P01375 77-233 limits assumed): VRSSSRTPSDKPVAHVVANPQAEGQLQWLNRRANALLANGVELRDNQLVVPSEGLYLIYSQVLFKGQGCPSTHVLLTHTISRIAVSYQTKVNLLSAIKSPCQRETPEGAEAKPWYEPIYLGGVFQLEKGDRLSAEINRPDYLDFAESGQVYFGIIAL

In the case of B7, the “IC50 (nM), TNFα blockade assay” value is reported as 0.055 nM.
